Reference: patent US20050009067A1, “Expression profile of pancreatic cancer” (priority 2003, published 2005)

How the values were obtained:
S100 proteins = conditions: Okada et al. 2002; cited from earlier work
NIH3T3 cells [1] = assay: NIH3T3 cell survival after apoptotic insults (5-FU, anoikis on polyHEMA); format: cell-based
Method: Apoptosis was induced in NIH3T3 cells either by prevention of cell adhesion to a solid substrate (anoikis) or by use of 5-flurouracil. To prevent cell adhesion, 6 well plates were covered (3 ml/well) with a solution of polyhydroxyethylmethacrylate (polyHEMA; Sigma-Aldrich) dissolved at 10 mg/ml in ethanol. Plates were kept at 37° C. for 5 days to evaporate solvent completely. Cells were resuspended at 5×10^4 cells/ml and were cultured (1 ml/well) in DMEM medium containing 10% fetal calf serum for different times on polyHEMA coated dishes at 37° C. and 5% CO2. Subsequently, cells were subjected to cell viability studies using MTS or recovered and analyzed for caspase 3 activity.

[2] = biological target: RAGE (endogenous, of NIH3T3 cells) (UniProt Q62151); assay: cell-based or functional assay
Sequence of RAGE (endogenous, of NIH3T3 cells) (Q62151 23-402 limits assumed): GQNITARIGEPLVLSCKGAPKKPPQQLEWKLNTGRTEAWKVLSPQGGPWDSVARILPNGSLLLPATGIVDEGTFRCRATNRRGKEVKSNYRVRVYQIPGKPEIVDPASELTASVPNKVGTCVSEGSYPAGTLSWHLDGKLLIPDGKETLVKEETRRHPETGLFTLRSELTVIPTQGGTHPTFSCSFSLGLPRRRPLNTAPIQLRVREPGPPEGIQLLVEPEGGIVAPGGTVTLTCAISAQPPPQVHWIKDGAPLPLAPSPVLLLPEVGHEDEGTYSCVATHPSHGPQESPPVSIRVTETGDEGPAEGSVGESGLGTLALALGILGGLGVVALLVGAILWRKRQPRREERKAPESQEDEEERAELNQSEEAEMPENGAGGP

NIH3T3 cells [3] = assay: Cell growth (MTS) of NIH3T3 cells with exogenously applied purified S100P; format: cell-based
Method: Cell growth was analyzed by using MTS reagent (Promega, Madison, Wis.) as per manufactures directions. For studies on the effects of S100P expression, vector alone and three different clonal S100P stably transfected cell lines (1000 cells/well) were seeded into 96 well plates and cell growth was studied from 0-120 hrs. For studies on the effects of exogenously applied S100P, purified S100P was added at indicated concentrations for specific times. MTS was added to the wells one hour before taking the photometric reading.
Full length S100P cDNA was cloned into pTrcHis2 vector (Invitrogen, Carlsbad, Calif.) and transformed into one shot TOP10 competent E.coli. The bacterial culture was incubated at 37° C. to an OD600=0.6, then IPTG (1 mM) was added and the bacteria were cultured for another 3 hrs. His-S100P was purified using Probond resin column as described by the manufacturer (Invitrogen, Carlsbad, Calif.). The fraction was further dialyzed against 10 mM Tris, pH 8.0, containing 01% Triton X 100 overnight at 4° C. using a Slide-A-Lyzer 10K (Pierce, Rockford, Ill.). Dialyzed protein was further concentrated by Centricon centrifugal filter device YM10 (Millipore, Bedford, Mass.). The purified S100P protein was confirmed by western blot and ELISA and used for in vitro experiments.

Erk 1 & 2 = Erk 1 & 2 phosphorylation in NIH3T3 cells (western blot); format: cell-based
Method: Western blot analysis was utilized for the detection of S100P, RAGE, as well as activated Erks and caspase 3 by minor modifications of previously published methods. Cell lysates were prepared and separated by SDS polyacrylimide gel electrophoresis and transferred to nitrocellulose. Membranes were blocked by overnight incubation at 4° C. in 5% milk solution. S100P was detected usingmonoclonal antibodies (Transduction Laboratories, San Diego, Calif.) by incubating the membrane overnight at 4° C. in antibody diluted 1:100 in 5% milk solution. RAGE was detected using goat polyclonal antibodies (Santa Cruz, Santa Cruz, Calif.) by incubating the transferred membrane in for one hour at room temperature with antibody diluted 1:100 in 5% milk solution. Caspase 3 activation was estimated by detection of pro-caspase 3 and active caspase 3 fragments using rabbit polyclonal antibodies against full length caspase 3 (Santacruz Biotech, Calif.) by incubating the membrane at 4° C. for overnight with antibody diluted 1:100 in 5% milk solution. Erk activation was estimated by detection of phosphorylated forms of Erk 1 and 2 using phospho-p44/42 MAP kinase (Thr202/Tyr204) antibody (Cell Signaling, Beverly, Mass.) and, as a loading control after striping, a rabbit polyclonal antibody for total Erk 1 & 2 (Santa Cruz, Santa Cruz, Calif.) by incubating the membrane at 4° C. overnight with antibody diluted 1:100 in 5% milk solution. Second antibody anti-mouse, anti-rabbit, or anti-goat IgG+HRP was incubated for one hour at room temperature and the signal was detected by ECL detection system (Amersham) as per manufacturer protocol.

NF-κB = NF-κB electrophoretic mobility shift assay in NIH3T3 cells; format: cell-based
Method: Nuclear extracts were prepared and used for electrophoretic mobility shift assays (EMSAs) as previously described (Han et al., Am. J. Physiol. 277:C74 [1999]). For NF-κB DNA binding the reaction was started by addition of 10,000 cpm of the 22-base pair oligonucleotide 5′-AGTTGAGGGGACTTTCCCAGGC-3′ (SEQ ID NO:7) containing the NF-κB consensus sequence that had been labeled with [γ-32P]-ATP (10 mCi/mmol) by T4 polynucleotide kinase. The reaction was allowed to proceed for 30 min at room temperature. For cold competition experiments unlabeled NF-κB oligonucleotide or OCT1 oligonucleotide as a nonspecific competitor (300×) were added to the binding reaction 5 min before the addition of the radiolabeled probe. For antibody supershift assays 2 μl of specific antibodies to NF-κB protein subunits p65, p50, and c-Rel were incubated with nuclear extracts for 1 hour at room temperature prior to the addition of labeled probe. All reaction mixtures were subjected to PAGE on 4.5% gel in 0.5×TBE buffer at 200 V. Gels were dried and directly exposed to the membranes were exposed to a B-1 phosphoimaging screen and visualized by the use of GS-250 Molecular Imaging System (Bio-Rad Laboratories, Richmond, Calif.).

RAGE = biological target: T1, RAGE (Mus musculus, UniProt Q62151); assay: Co-immunoprecipitation (pull-down) of S100P with RAGE from NIH3T3 lysates; format: binding; conditions: NIH3T3 lysates incubated with S100P and S100P antibody
T1 construct: RAGE was present in the S100P complexes from wild-type NIH3T3 cells incubated with exogenous S100P and S100P antibody; endogenous in cells; host or cells: NIH3T3 cell lysates for RAGE; E. coli TOP10 for the added His-S100P
T1 sequence (Q62151 23-402): as the sequence (Q62151 23-402 limits assumed) above
Method: For co-immunoprecipitation experiments, cell lysates were incubated in the absence or presence of S100P (1 μg) at 4° C. overnight. S100P was immunoprecipitated using mouse monoclonal antibody against S100P (Transduction Laboratories, San Diego, Calif.), for 6 hours at 4° C. and IgG immobolized beads (Pierce, Rockford, Ill.). Antibody associated proteins were electrophoresed on 10% polyacrylamide gel and transferred to nitrocellulose membrane. Transferred membrane was blocked by 5% milk solution overnight at 4° C. RAGE was detected as described.

CN(C)CC/C=C1/c2ccccc2COc2ccc(CC(=O)O)cc21 [olopatadine]
interaction with S100 proteins (S100 proteins): interact with S100 proteins

O=c1[nH]cc(F)c(=O)[nH]1 [5-FU, 5-fluorouracil, reference compound]
killing of NIH3T3 cells (NIH3T3 cells [1]; wild-type vs S100P expressing NIH3T3 cells, 5-FU 150 ug/ml (FIG. 5B)): efficiently kill wild-type but not S100P expressing NIH3T3 cells

purified His-S100P protein (His-tagged fusion protein of full length S100P made in E. coli) (from UniProt P25815 1-95) (ligand)
NIH3T3 cell proliferation, fold over control [2]: 2 fold | survival of NIH3T3 cells after 5 FU [2]: 1 nM

CC(C)c1ccc2oc3nc(N)c(C(=O)O)cc3c(=O)c2c1 [amlexanox]
interaction with S100 proteins (S100 proteins): interact with S100 proteins

synthetic peptide derived from amphoterin (RAGE antagonist peptide)
inhibition of S100P activation of Erk [2]: 50 nM | inhibition of S100P activation of Erk, complete [2]: 500 nM

B1: S100P: purified S100P generated as a His-tagged fusion protein in bacteria (protein, UniProt P25815 1-95, looked up)
Protein S100-P: MTELETAMGMIIDVFSRYSGSEGSTQTLTKGELKVLMEKELPGFLQSGKDKDAVDKLLKDLDANGDAQVDFSEFIVFVAAITSACHKYFEKAGLK
modifications: His tag
notes: purified S100P generated as a His-tagged fusion protein in bacteria
concentration giving maximal effect on cell proliferation (NIH3T3 cells [3]; NIH3T3 cells): 100 nM | concentration at which effects on cell proliferation were noted (NIH3T3 cells [3]; purified S100P added to NIH3T3 cells, dose-response): 10 pM | time after which significant increase in cell proliferation was noted (NIH3T3 cells [3]; time-course): 48 h | maximal effect on cell proliferation (NIH3T3 cells [3]; with 100 nM S100P): ~2 fold over control | concentration at which protection from the effects of 5 FU was noted (NIH3T3 cells [1]; S100P added to culture medium, NIH3T3): 1 nM | time after which significant protection from anoikis was noted (NIH3T3 cells [1]; time-course): 36 h | concentration at which effects on Erk phosphorylation were noted (Erk 1 & 2; dose-response): 10 pM | concentration giving maximal effects on Erk phosphorylation (Erk 1 & 2; dose-response): 100 nM | duration Erk phosphorylation remained significantly elevated (Erk 1 & 2; purified S100P, NIH3T3): at least 2 hours | time of maximal increase of Erk phosphorylation (Erk 1 & 2; purified S100P, NIH3T3): 30 min | time to significant Erk 1 & 2 phosphorylation (Erk 1 & 2; purified S100P, NIH3T3): ≤ 10 min | duration increase in NF-κB DNA binding was maintained (NF-κB; S100P, NIH3T3, EMSA): at least 2 hours | time to initiation of increase in NF-κB DNA binding (NF-κB; S100P, NIH3T3, EMSA): ≤ 10 min | concentration at which significant effects on NF-κB activation were noted (NF-κB; concentration dependence): 0.1 nM | concentration giving maximal effect on NF-κB activation (NF-κB; concentration dependence): 100 nM | interaction with RAGE (co-immuno-precipitation) (RAGE): can interact directly with RAGE
